What was measured:
[1] = system: Trichomonas vaginalis homocysteinase, isolated native enzyme (may reflect expression from more than one gene); conditions: native enzyme isolated from T. vaginalis; Lockwood et al., 1991; cited from earlier work
[2] = from the relative activity scale
Source text: Homocysteinase enzymes of suitable catalytic activity for use as starting materials to obtain mutated forms can be derived from other Pseudomonas species, or from other bacteria, using routine screening procedures and assays that are recognized in the art.

[3] = system: N[C@@H](CCS)C(=O)O; test: Km of the novel homocysteinase expressed from the pAC2-1 clone (α-ketobutyrate/pyruvate assay, MBTH); format: biochemical, Trichomonas vaginalis; conditions: other: 37° C., pH 8.0, 100 mM phosphate buffer, 10 μM pyridoxal phosphate, 10 minutes, DL-homocysteine, L-cysteine or L-methionine separately, 10 μM to 1.6 mM
Source text: (§1) In FIG. 1 (panels A and B) are depicted the amino acid sequences of two Trichomonas vaginalis homocysteinases, the first derived from a novel clone (pAC2-1) of the present invention, and the second, the enzyme derived from the known mgl1 gene (see also SEQ ID NOS: 10 and 12 for comparison of amino acids; SEQ ID NOS: 9 and 11 for comparison of encoding DNA's). It will be seen that pAC2-1 is characterized by the existence of three differences (mutations), compared to mgl1:
(§2) Phe to Leu at amino acid position 47,
(§3) Asp to Glu at amino acid position 172, and
(§4) Ser to Tyr at amino acid position 308.
(§5) In the first step of this assay, 1 ml volumes of 100 mM phosphate buffer pH 8.0, containing also 10 μM pyridoxal phosphate, […], respectively, were incubated, for 10 min at 37° C., with a sufficient sample (typically 50 μl) of crude cell extract (cells were sonicated, and the supernatant was recovered following centrifugation) to provide about 1-100 units of homocysteinase (“HCYase”) enzyme. The reactions were stopped by adding 0.1 ml of 50% TCA. The suspensions were then centrifuged using an Eppendorf centrifuge at 13 k rpm for 2 minutes. 0.5 ml samples of the supernatants were then added to 0.5 ml of 0.05% 3-methyl-2-benzothiazolinone hydrazone (“MBTH”) in 0.8 ml of 1M sodium acetate, pH 5.2 and incubated at 50° C. for 30 min. The amount of reaction products was determined for each sample, by spectrophotometry at OD320. The amount of protein was determined with a Bio-Rad 500-0006 kit (Bio-Rad, Richmond, Calif.) with bovine serum albumin as a standard. The enzyme specific activity was calculated as units/mg protein, with one unit of enzyme defined as the amount that catalyzes the formation of 1 μmol of α-ketobutyrate from homocysteine per minute. […]
(§6) The reaction was stopped by adding 0.1 ml of 50% TCA. […] The amount of reaction product was then determined by spectrophotometry at OD320. The Kcat (turnover number) values reported in FIG. 5, were determined from the calculation of Vmax values using standard kinetic expressions and plots.

[4] = system: CSCC[C@H](N)C(=O)O; test: as above; format: biochemical, Trichomonas vaginalis; conditions: other: 37° C., pH 8.0, 100 mM phosphate buffer, 10 μM pyridoxal phosphate, 10 minutes, DL-homocysteine, L-cysteine or L-methionine separately, 10 μM to 1.6 mM
Source text: as §1, §2, §3, §4, §5, §6

[5] = system: N[C@@H](CS)C(=O)O; test: as above; format: biochemical, Trichomonas vaginalis; conditions: other: 37° C., pH 8.0, 100 mM phosphate buffer, 10 μM pyridoxal phosphate, 10 minutes, DL-homocysteine, L-cysteine or L-methionine separately, 10 μM to 1.6 mM
Source text: as §1, §2, §3, §4, §5, §6

[6] = Single enzyme assay detecting product hydrogen sulfide: contribution of homocysteine versus cysteine; format: biochemical
Source text: According to the preferred practice of the invention, homocysteinases are provided wherein the relative activities of said enzymes toward homocysteine versus cysteine are such that, by detecting product hydrogen sulfide, the apparent concentration of homocysteine measured in a patient sample (which reflects also a contribution from cysteine) is less that about 150%, preferably less than about 110%, and most preferably less than about 102%, of the actual value thereof. In a further preferred example of the invention, for example using the novel Trichomonas homocysteinase expressed from pAC2-1, the apparent concentration of homocysteine measured in a single enzyme assay reflects no more than about a 1% false contribution from cysteine.
In general, useful diagnostic information can be obtained when the amount of produced hydrogen sulfide attributable to homocysteine is about one half of the total. […] Preferably, however the fraction of total hydrogen sulfide detected in an assay that is attributable to homocysteine is at least 90%, preferably 95%, more preferably 98%, and most preferably 99% or greater. The 99% level is readily obtained according to the practice of the invention, for example using the homocysteinase represented by SEQ ID NO: 10. […]

[7] = Homocysteinase specific activity, α-ketobutyrate assay; format: biochemical
Method: In the first step of this assay, 1 ml volumes of 100 mM phosphate buffer pH 8.0, containing also 10 μM pyridoxal phosphate, and different concentrations (25 μM-25 mM) of DL-homocysteine, or L-methionine, L-cysteine, respectively, were incubated, for 10 min at 37° C., with a sufficient sample (typically 50 μl) of crude cell extract (cells were sonicated, and the supernatant was recovered following centrifugation) to provide about 1-100 units of homocysteinase (“HCYase”) enzyme. The reactions were stopped by adding 0.1 ml of 50% TCA. The suspensions were then centrifuged using an Eppendorf centrifuge at 13 k rpm for 2 minutes. 0.5 ml samples of the supernatants were then added to 0.5 ml of 0.05% 3-methyl-2-benzothiazolinone hydrazone (“MBTH”) in 0.8 ml of 1M sodium acetate, pH 5.2 and incubated at 50° C. for 30 min. The amount of reaction products was determined for each sample, by spectrophotometry at OD320. The amount of protein was determined with a Bio-Rad 500-0006 kit (Bio-Rad, Richmond, Calif.) with bovine serum albumin as a standard. The enzyme specific activity was calculated as units/mg protein, with one unit of enzyme defined as the amount that catalyzes the formation of 1 μmol of α-ketobutyrate from homocysteine per minute. The assay procedure can, of course, also be used with purified homocysteinase samples that provide, for example, 1-100 units of enzyme per assay test.
Alternatively, an additional two stage strategy may be used. In the first stage, the partitioning material was DEAE Sepharose® FF, and loading and pre-washing were conducted with 20 mM sodium phosphate buffer, pH 7.2. Elution of the protein was accomplished using a linear gradient (8 ml/min) from 20 mM sodium phosphate buffer, pH 7.2 (solution A) to 20 mM sodium phosphate buffer, pH 7.2, 500 mM NaCl (solution B). In the second stage, the partitioning material was phenyl Sepharose® 6-FF, and loading and pre-washing were conducted with 0.6 M NH4SO4 in 20 mM sodium phosphate buffer, pH 7.2. Elution of the protein was accomplished using a linear gradient (5 ml/min) from 0.6 M NH4SO4, 20 mM sodium phosphate buffer, pH 7.2 (solution A) to 20 mM sodium phosphate buffer, pH 7.2, (solution B). The following purification results were obtained for this alternate procedure. The above-described cell-lysate contained 8400 units of homocysteinase at a specific activity (units/mg) of 5.2. Following completion of pre-column procedures, 6,300 units were recovered at a specific activity of 64 (about 75% yield). Upon completion of the DEAE Sepharose®-FF step (first column), 5,040 units were recovered at a specific activity of 172 (60% yield), while after the phenyl Sepharose® 6-FF step (second column), 4,200 units remained at a specific activity of 300 (50% yield).
An activity assay for the keto product of the α, γ or α,β-elimination (α-keto butryate for homocysteine) was carried out in a 1.5 ml Eppindorf tube using 1-ml. of 50 mM phosphate buffer pH 8.0 (also containing 10 μM pyridoxal phosphate and 20 mM homocysteine) for 10 minutes at 37° C., with varying amounts of enzyme. The reaction was stopped by adding 0.5 ml of 4.5% TCA. […]
The amount of reaction product was determined by spectrophotometry at OD335. […] The amount of protein was determined with the Lowry Reagent Kit (Sigma) with bovine serum albumin as a standard. The specific activity was calculated as units/mg protein, with one unit of enzyme defined as the amount that catalyzed the formation of 1 μmol of α-ketobutyrate/minute.

[8] = Relative activity toward homocysteine versus cysteine or methionine; format: biochemical; conditions: apparent activity
Method: In the first step of this assay, 1 ml volumes of 100 mM phosphate buffer pH 8.0, containing also 10 μM pyridoxal phosphate, and different concentrations (25 μM-25 mM) of DL-homocysteine, or L-methionine, L-cysteine, respectively, were incubated, for 10 min at 37° C., with a sufficient sample (typically 50 μl) of crude cell extract (cells were sonicated, and the supernatant was recovered following centrifugation) to provide about 1-100 units of homocysteinase (“HCYase”) enzyme. The reactions were stopped by adding 0.1 ml of 50% TCA. The suspensions were then centrifuged using an Eppendorf centrifuge at 13 k rpm for 2 minutes. 0.5 ml samples of the supernatants were then added to 0.5 ml of 0.05% 3-methyl-2-benzothiazolinone hydrazone (“MBTH”) in 0.8 ml of 1M sodium acetate, pH 5.2 and incubated at 50° C. for 30 min. The amount of reaction products was determined for each sample, by spectrophotometry at OD320. The amount of protein was determined with a Bio-Rad 500-0006 kit (Bio-Rad, Richmond, Calif.) with bovine serum albumin as a standard. The enzyme specific activity was calculated as units/mg protein, with one unit of enzyme defined as the amount that catalyzes the formation of 1 μmol of α-ketobutyrate from homocysteine per minute. The assay procedure can, of course, also be used with purified homocysteinase samples that provide, for example, 1-100 units of enzyme per assay test. […]

N[C@@H](CCS)C(=O)O (racemic) [homocysteine]
Km [1]: ~0.5 mM

L-methionine-alpha-deamino-gamma-mercaptomethane lyase [P. putida enzyme]
apparent preference for homocysteine over cysteine [2]: ~10 fold

Trichomonas vaginalis homocysteinase, pAC2-1 clone (recombinant in E. coli BL21 (DE3)), SEQ ID NO: 10; versus mgl1 (SEQ ID NO: 12): Phe47 to Leu, Asp172 to Glu, Ser308 to Tyr; N-terminal 6x His (Trichomonas vaginalis; D172E/F47L/S308Y)
Km [3]: 4.8 mM | Km [4]: 3.1 mM | Km [5]: 3.45 mM

B1: SEQ ID NO: 10: recombinant Trichomonas vaginalis homocysteinase from E. coli clone pAC2-1 (ATCC 98549), with 6 N-terminal histidine residues (protein)
chain: MHHHHHHMSHERMTPATACIHANPQKDQFGAAIPPIYQTSTFVFDNCQQGGNRLAGQESGYIYTRLGNPTVSNLEGKIAFLEKTEACVATSSGMGAIAATVLTILKAGDHLISDECLYGCTHALFEHALTKFGIQVDFINTAIPGEVKKHMKPNTKIVYFETPANPTLKIIDMERVCKEAHSQEGVLVIADNTFCSPMITNPVDFGVDVVVHSATKYINGHTDVVAGLICGKADLLQQIRMVGIKDITGSVISPHDAWLITRGLSTLNIRMKAESENAMKVAEYLKSHPAVEKVYYPGFEDHEGHDIAKKQMRMYGSMITFILKSGFEGAKKLLDNLKLITLAVSLGGCESLIQHPASMTHAVVPKEEREAAGITDGMIRLSVGIEDADELIADFKQGLDALL
modifications: N-terminal His6 tag
notes: recombinant Trichomonas vaginalis homocysteinase from E. coli clone pAC2-1 (ATCC 98549), with 6 N-terminal histidine residues
fraction of total hydrogen sulfide detected that is attributable to homocysteine ([6]; single enzyme assay of patient samples): ≥ 99% | false contribution from cysteine to apparent homocysteine concentration ([6]; single enzyme assay, product hydrogen sulfide detected): ≤ 1% | specific activity ([7]; after DEAE Sepharose-FF step): 172 units/mg | specific activity ([7]; after phenyl Sepharose 6-FF step): 300 units/mg | specific activity ([7]; after pre-column procedures): 64 units/mg | specific activity ([7]; cell-lysate): 5.2 units/mg | specific activity ([7]; commercial product HYase from AntiCancer, Inc): 40 units/mg | activity for homocysteine relative to cysteine and methionine [8]: at least 100 fold
